± gives the standard error. For some assays here: Variants at the floor of the assay were thinned out.
B1: glmS ribozyme (parent)
chain: AUAAAAGCGCCAGAACUACAGAAAUGUAGUUGACGAGGAGGAGGUUUAUCGAAUUUUCGGCGGAUGCCUCCAAA

What was measured:
Settings in all cases: with glucosamine-6-phosphate
[1] = variants of: B1; experiment: kcat; higher = faster cleavage; RNA array
How it was run: (§1)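 On sequenced MiSeq chips, barcoded ribozyme variants were made in situ by E. coli RNA polymerase and followed at 37 °C through a hybridised Cy3 probe. Glucosamine-6-phosphate was flowed in at 40 μM to 10 mM in HEPES/KCl/Mg(OAc)2 buffer. Exponential fits to normalised per-tile medians gave kobs, and weighted Michaelis–Menten fits gave kcat and KM.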

[2] = variants of: B1; experiment: self-cleavage kobs at 40 uM GlcN6P; higher = faster cleavage; RNA array
How it was run: as §1

[3] = variants of: B1; experiment: self-cleavage kobs at 160 uM GlcN6P; higher = faster cleavage; RNA array
How it was run: as §1

[4] = variants of: B1; experiment: self-cleavage kobs at 640 uM GlcN6P; higher = faster cleavage; RNA array
How it was run: as §1

[5] = variants of: B1; experiment: self-cleavage kobs at 2500 uM GlcN6P; higher = faster cleavage; RNA array
How it was run: as §1

[6] = variants of: B1; experiment: self-cleavage kobs at 10000 uM GlcN6P; higher = faster cleavage; RNA array
How it was run: as §1

[7] = variants of: B1; experiment: KM; higher = weaker cofactor use; RNA array
How it was run: as §1

Variant	kcat [1] [s⁻¹]	self-cleavage kobs at 40 uM GlcN6P [2] [s⁻¹]	self-cleavage kobs at 160 uM GlcN6P [3] [s⁻¹]	self-cleavage kobs at 640 uM GlcN6P [4] [s⁻¹]	self-cleavage kobs at 2500 uM GlcN6P [5] [s⁻¹]	self-cleavage kobs at 10000 uM GlcN6P [6] [s⁻¹]	KM [7] [µM]
AUAAAAGCGCCAGGAGUACAGAAAUGUAGUUGACGAGGAGGAGGUUUAUCGAAUUUUCGGCGGAUGCCUCCAAA [A14G C16G]	0.0069 ± 0.0022	0.000569 ± 8.6e-05	0.00113 ± 0.00027	0.00514 ± 0.0008	0.00397 ± 0.0011	0.00854 ± 0.0016	
AUAAAAGCGCCAGGACUACAGAAAUGUAGUUGACGAGGAGGAGGCUUAUCGAAUUUUCGGCGGAUGCCUCCAAA [A14G U45C]	0.00289 ± 0.0011	0.000196 ± 4.6e-05	0.000403 ± 9.2e-05	0.00149 ± 0.00031	0.00215 ± 0.00057		
AUAAAAGCGCCAGGACUACAGAAAUGUACUUGACGAGGAGGAGGUUUAUCGAAUUAUCGGCGGAUGCCUCCAAA [A14G G29C U56A]	0.00138 ± 0.00036	3.76e-05 ± 1.8e-05		0.000364 ± 8.4e-05	0.000647 ± 0.00014	0.00136 ± 0.00029	1960 ± 970
AUAAAAGCGCCAGGACUACAGAAAUGUAGUUGACGAGGAGGAGGUUUAUCGAAUUUUCGGCGUAUGCCUCCAAA [A14G G63U]	< 1e-05	< 1e-05	< 1e-05	< 1e-05	< 1e-05		
AUAAAAGCGCCAGGACUACAGAAAUGUAGUUGACGAGGAGGAGGUUUAUCGAAUUUUCGGCGGUUGCCUCCAAA [A14G A64U]	0.000311 ± 2.2e-05			7.9e-05 ± 1e-05	0.000199 ± 2.7e-05	0.000257 ± 2.3e-05	1830 ± 300
AUAAAAGCGCCAGGACUACAGAAAUGUAGUUCACGAGGAGGAGGUUUAUCGAAUUUUCGGCGGAUGCCUUCAAA [A14G G32C C70U]	0.000668 ± 0.00026				9.2e-05 ± 3.3e-05	0.000239 ± 4.4e-05	
AUAAAAGCGCCAGGACUACAGAAAUGUAGUUGACGAGGAGCAGGUUUAUCGAAUUUUCGGCGGAUGCCUCCAAA [A14G G41C]	0.00141 ± 0.00048	4.74e-05 ± 9.7e-06	4.38e-05 ± 1.7e-05	0.00022 ± 5.1e-05	0.000737 ± 0.00013	0.00105 ± 0.00013	
AUAAAAGCGCCAGCACUACAGAAAUGUAGUUGACGAGGAGGAGGUUUAUCGAAUUUUCGGCGGAGGCCUUCAAA [A14C U65G C70U]	0.0014 ± 0.00044		4.59e-05 ± 1.6e-05	0.000315 ± 6.8e-05	0.000467 ± 6.2e-05	0.00104 ± 0.00015	
